From patent publication US20230407373A1 (priority 2020, published 2023)
Where two headings read alike, the source gives them in different places.

B1: PUM1: host protein, UniProt Q14671 (protein, UniProt Q14671 2-1186, looked up)
Pumilio homolog 1: SVACVLKRKAVLWQDSFSPHLKHHPQEPANPNMPVVLTSGTGSQAQPQPAANQALAAGTHSSPVPGSIGVAGRSQDDAMVDYFFQRQHGEQLGGGGSGGGGYNNSKHRWPTGDNIHAEHQVRSMDELNHDFQALALEGRAMGEQLLPGKKFWETDESSKDGPKGIFLGDQWRDSAWGTSDHSVSQPIMVQRRPGQSFHVNSEVNSVLSPRSESGGLGVSMVEYVLSSSPGDSCLRKGGFGPRDADSDENDKGEKKNKGTFDGDKLGDLKEEGDVMDKTNGLPVQNGIDADVKDFSRTPGNCQNSANEVDLLGPNQNGSEGLAQLTSTNGAKPVEDFSNMESQSVPLDPMEHVGMEPLQFDYSGTQVPVDSAAATVGLFDYNSQQQLFQRPNALAVQQLTAAQQQQYALAAAHQPHIGLAPAAFVPNPYIISAAPPGTDPYTAGLAAAATLGPAVVPHQYYGVTPWGVYPASLFQQQAAAAAAATNSANQQTTPQAQQGQQQVLRGGASQRPLTPNQNQQGQQTDPLVAAAAVNSALAFGQGLAAGMPGYPVLAPAAYYDQTGALVVNAGARNGLGAPVRLVAPAPVIISSSAAQAAVAAAAASANGAAGGLAGTTNGPFRPLGTQQPQPQPQQQPNNNLASSSFYGNNSLNSNSQSSSLFSQGSAQPANTSLGFGSSSSLGATLGSALGGFGTAVANSNTGSGSRRDSLTGSSDLYKRTSSSLTPIGHSFYNGLSFSSSPGPVGMPLPSQGPGHSQTPPPSLSSHGSSSSLNLGGLTNGSGRYISAAPGAEAKYRSASSASSLFSPSSTLFSSSRLRYGMSDVMPSGRSRLLEDFRNNRYPNLQLREIAGHIMEFSQDQHGSRFIQLKLERATPAERQLVFNEILQAAYQLMVDVFGNYVIQKFFEFGSLEQKLALAERIRGHVLSLALQMYGCRVIQKALEFIPSDQQNEMVRELDGHVLKCVKDQNGNHVVQKCIECVQPQSLQFIIDAFKGQVFALSTHPYGCRVIQRILEHCLPDQTLPILEELHQHTEQLVQDQYGNYVIQHVLEHGRPEDKSKIVAEIRGNVLVLSQHKFASNVVEKCVTHASRTERAVLIDEVCTMNDGPHSALYTMMKDQYANYVVQKMIDVAEPGQRKIVMHKIRPHIATLRKYTYGKHILAKLEKYYMKNGVDLGPICGPPNGII
B2: HNRNPA1 (protein, UniProt P09651 1-372, looked up)
Heterogeneous nuclear …: MSKSESPKEPEQLRKLFIGGLSFETTDESLRSHFEQWGTLTDCVVMRDPNTKRSRGFGFVTYATVEEVDAAMNARPHKVDGRVVEPKRAVSREDSQRPGAHLTVKKIFVGGIKEDTEEHHLRDYFEQYGKIEVIEIMTDRGSGKKRGFAFVTFDDHDSVDKIVIQKYHTVNGHNCEVRKALSKQEMASASSSQRGRSGSGNFGGGRGGGFGGNDNFGRGGNFSGRGGFGGSRGGGGYGGSGDGYNGFGNDGGYGGGGPGYSGGSRGYGSGGQGYGNQGSGYGGSGSYDSYNNGGGGGFGGGSGSNFGGGGSYNDFGNYNNQSSNFGPMKGGNFGGRSSGPYGGGGQYFAKPRNQGGYGGSSSSSSYGSGRRF
B3: HNRNPUL2: host protein, UniProt Q1KMD3 (protein, UniProt Q1KMD3 1-747, looked up)
Heterogeneous nuclear …: MEVKRLKVTELRSELQRRGLDSRGLKVDLAQRLQEALDAEMLEDEAGGGGAGPGGACKAEPRPVAASGGGPGGDEEEDEEEEEEDEEALLEDEDEEPPPAQALGQAAQPPPEPPEAAAMEAAAEPDASEKPAEATAGSGGVNGGEEQGLGKREEDEPEERSGDETPGSEVPGDKAAEEQGDDQDSEKSKPAGSDGERRGVKRQRDEKDEHGRAYYEFREEAYHSRSKSPLPPEEEAKDEEEDQTLVNLDTYTSDLHFQVSKDRYGGQPLFSEKFPTLWSGARSTYGVTKGKVCFEAKVTQNLPMKEGCTEVSLLRVGWSVDFSRPQLGEDEFSYGFDGRGLKAENGQFEEFGQTFGENDVIGCFANFETEEVELSFSKNGEDLGVAFWISKDSLADRALLPHVLCKNCVVELNFGQKEEPFFPPPEEFVFIHAVPVEERVRTAVPPKTIEECEVILMVGLPGSGKTQWALKYAKENPEKRYNVLGAETVLNQMRMKGLEEPEMDPKSRDLLVQQASQCLSKLVQIASRTKRNFILDQCNVYNSGQRRKLLLFKTFSRKVVVVVPNEEDWKKRLELRKEVEGDDVPESIMLEMKANFSLPEKCDYMDEVTYGELEKEEAQPIVTKYKEEARKLLPPSEKRTNRRNNRNKRNRQNRSRGQGYVGGQRRGYDNRAYGQQYWGQPGNRGGYRNFYDRYRGDYDRFYGRDYEYNRYRDYYRQYNRDWQSYYYHHPQDRDRYYRNYYGYQGYR
B4: THRAP3: host protein, UniProt Q9Y2W1 (protein, UniProt Q9Y2W1 2-955, looked up)
Thyroid hormone …: SKTNKSKSGSRSSRSRSASRSRSRSFSKSRSRSRSLSRSRKRRLSSRSRSRSYSPAHNRERNHPRVYQNRDFRGHNRGYRRPYYFRGRNRGFYPWGQYNRGGYGNYRSNWQNYRQAYSPRRGRSRSRSPKRRSPSPRSRSHSRNSDKSSSDRSRRSSSSRSSSNHSRVESSKRKSAKEKKSSSKDSRPSQAAGDNQGDEAKEQTFSGGTSQDTKASESSKPWPDATYGTGSASRASAVSELSPRERSPALKSPLQSVVVRRRSPRPSPVPKPSPPLSSTSQMGSTLPSGAGYQSGTHQGQFDHGSGSLSPSKKSPVGKSPPSTGSTYGSSQKEESAASGGAAYTKRYLEEQKTENGKDKEQKQTNTDKEKIKEKGSFSDTGLGDGKMKSDSFAPKTDSEKPFRGSQSPKRYKLRDDFEKKMADFHKEEMDDQDKDKAKGRKESEFDDEPKFMSKVIGANKNQEEEKSGKWEGLVYAPPGKEKQRKTEELEEESFPERSKKEDRGKRSEGGHRGFVPEKNFRVTAYKAVQEKSSSPPPRKTSESRDKLGAKGDFPTGKSSFSITREAQVNVRMDSFDEDLARPSGLLAQERKLCRDLVHSNKKEQEFRSIFQHIQSAQSQRSPSELFAQHIVTIVHHVKEHHFGSSGMTLHERFTKYLKRGTEQEAAKNKKSPEIHRRIDISPSTFRKHGLAHDEMKSPREPGYKAEGKYKDDPVDLRLDIERRKKHKERDLKRGKSRESVDSRDSSHSRERSAEKTEKTHKGSKKQKKHRRARDRSRSSSSSSQSSHSYKAEEYTEETEEREESTTGFDKSRLGTKDFVGPSERGGGRARGTFQFRARGRGWGRGNYSGNNNNNSNNDFQKRNREEEWDPEYTPKSKKYYLHDDREGEGSDKWVSRGRGRGAFPRGRGRFMFRKSSTSPKWAHDKFSGEEGEIEDDESGTENREEKDNIQPTTE
B5: RTCB (protein, UniProt Q9Y3I0 1-505, looked up)
RNA-splicing ligase RtcB …: MSRSYNDELQFLEKINKNCWRIKKGFVPNMQVEGVFYVNDALEKLMFEELRNACRGGGVGGFLPAMKQIGNVAALPGIVHRSIGLPDVHSGYGFAIGNMAAFDMNDPEAVVSPGGVGFDINCGVRLLRTNLDESDVQPVKEQLAQAMFDHIPVGVGSKGVIPMNAKDLEEALEMGVDWSLREGYAWAEDKEHCEEYGRMLQADPNKVSARAKKRGLPQLGTLGAGNHYAEIQVVDEIFNEYAAKKMGIDHKGQVCVMIHSGSRGLGHQVATDALVAMEKAMKRDKIIVNDRQLACARIASPEGQDYLKGMAAAGNYAWVNRSSMTFLTRQAFAKVFNTTPDDLDLHVIYDVSHNIAKVEQHVVDGKERTLLVHRKGSTRAFPPHHPLIAVDYQLTGQPVLIGGTMGTCSYVLTGTEQGMTETFGTTCHGAGRALSRAKSRRNLDFQDVLDKLADMGIAIRVASPKLVMEEAPESYKNVTDVVNTCHDAGISKKAIKLRPIAVIKG

Columns and labels:
Assay type in all cases: binding
SARS-CoV-2 gRNA = settings: […]; LC-MS/MS; Probe I sample (first 199 lines of Table 2)
gRNA of HCoV-OC43 = settings: for target (spectral count) / background (spectral count): type g_36_m, 36 hpi, Probe I; for target (spectral count): HCoV-OC43-infected HCT-8 cells; for background (spectral count): uninfected-probe control; for target (spectral count, OC43 Probe I RNP capture) / background (spectral count, no-probe control): type n_48_v: 48 hours post-infection; for target (spectral count, OC43 Probe I RNP capture): infected cells, unweighted spectral count; for background (spectral count, no-probe control): no-probe control on infected cells
[1] = system: SARS-CoV-2 gRNA and sgRNAs; settings: for target (unweighted spectral count in RNP capture): Probe II capture, LC-MS/MS LFQ; for background (unweighted spectral count in control): no-probe control pull-down, used as background for Probe II; for target (unweighted spectral count of the protein in the RNP capture experiment): LC-MS/MS label-free quantification, probe pool not given; for back-ground (unweighted spectral count of the protein in the control experiment): protein background of the control (e.g. no-probe) experiment
HCoV-OC43 gRNA and sgRNA = settings: for target (unweighted spectral count, OC43 Probe II capture) / target (unweighted spectral count): tested against no-probe control; for target (unweighted spectral count, OC43 Probe II capture): FDR<10%; for target (unweighted spectral count, OC43 Probe II) / background (unweighted spectral count, no-probe control): type n_48_v, 48 hpi; for target (unweighted spectral count, OC43 Probe II): OC43 Probe II capture on infected cells; for background (unweighted spectral count, no-probe control): no-probe control on infected cells; for target (unweighted spectral count): OC43 Probe II, infected cells

Molecule | target (unweighted spectral count of the protein in the RNP capture) (SARS-CoV-2 gRNA) | target (spectral count) (gRNA of HCoV-OC43) | background (spectral count) (gRNA of HCoV-OC43) | target (spectral count, OC43 Probe I RNP capture) (gRNA of HCoV-OC43) | background (spectral count, no-probe control) (gRNA of HCoV-OC43) | target (unweighted spectral count in RNP capture) [1] | background (unweighted spectral count in control) [1] | target (unweighted spectral count, OC43 Probe II capture) (HCoV-OC43 gRNA and sgRNA; 36 hpi, type n_36_v) | target (unweighted spectral count, OC43 Probe II) (HCoV-OC43 gRNA and sgRNA) | background (unweighted spectral count, no-probe control) (HCoV-OC43 gRNA and sgRNA) | target (unweighted spectral count) (HCoV-OC43 gRNA and sgRNA; 12 hpi (type n_12_v)) | target (unweighted spectral count) (HCoV-OC43 gRNA and sgRNA; 24 hpi (type n_24_v)) | target (unweighted spectral count of the protein in the RNP capture experiment) [1] | back-ground (unweighted spectral count of the protein in the control experiment) [1] | target (spectral count) (HCoV-OC43 gRNA and sgRNA; type s_36_m, HCoV-OC43-infected HCT-8 cells, 36 hpi, Probe II) | background (spectral count) (HCoV-OC43 gRNA and sgRNA; type s_36_m, uninfected-probe control, 36 hpi, Probe II) | target (unweighted spectral count, OC43 Probe II capture) (HCoV-OC43 gRNA and sgRNA; 24 hpi, type n_24_v)
B1 | 6 | 11 | 1 | 6 | 1 | 20 | 1 | 6 | 6 | 1 | – | – | – | – | – | – | –
B2 | 97 | – | – | 82 | 7 | 74 | – | 39 | 53 | 7 | 24 | 31 | – | – | – | – | –
B3 | 6 | 24 | 3 | 33 | 2 | – | – | 14 | 25 | 2 | 6 | 11 | 5 | 1 | 14 | 1 | –
B4 | 7 | 8 | 1 | 10 | 2 | – | – | 12 | 13 | 2 | – | – | 6 | 1 | – | – | –
B5 | 6 | – | – | 7 | 1 | 14 | 1 | 6 | 7 | 1 | – | – | – | – | – | – | 4
